Experimental data as given in publication PMC3561363, “A Novel Retro-Inverso Peptide Inhibitor Reduces Amyloid Deposition, Oxidation and Inflammation and Stimulates Neurogenesis in the APPswe/PS1ΔE9 Mouse Model of Alzheimer’s Disease” (PLoS ONE, 2013).

Molecular target: T1, Aβ(1–42) (UniProt P05067 672-713)
T1 construct: also called Aβ42; β-amyloid (Aβ) peptide; source: bought: rPeptide (recombinant Aβ42, Ultrapure)
Test: SPR; Aβ42 fibrils immobilised by amine coupling on a COOH5 chip (~5,000 RU), Sensi Q; RI-OR2-TAT injected at 1, 3 and 6 µM in PBS with 0.005% Tween 20 for 5 min at 30 µl/min; empty reference surface subtracted; each concentration fitted separately, 1:1 Langmuir model; apparent
Conditions: both partners purified

B1: RI-OR2-TAT (Ac-rGffvlkGrrrrqrrkkrGy-NH2) (peptide)
peptide: RGFFVLKGRRRRQRRKKRGY
HELM: PEPTIDE1{[ac].[dR].G.[dF].[dF].[dV].[dL].[dK].G.[dR].[dR].[dR].[dR].[dQ].[dR].[dR].[dK].[dK].[dR].G.[dY].[am]}$$$$V2.0
SMILES: CC(=O)N[C@H](CCCNC(=N)N)C(=O)NCC(=O)N[C@H](Cc1ccccc1)C(=O)N[C@H](Cc1ccccc1)C(=O)N[C@@H](C(=O)N[C@H](CC(C)C)C(=O)N[C@H](CCCCN)C(=O)NCC(=O)N[C@H](CCCNC(=N)N)C(=O)N[C@H](CCCNC(=N)N)C(=O)N[C@H](CCCNC(=N)N)C(=O)N[C@H](CCCNC(=N)N)C(=O)N[C@H](CCC(N)=O)C(=O)N[C@H](CCCNC(=N)N)C(=O)N[C@H](CCCNC(=N)N)C(=O)N[C@H](CCCCN)C(=O)N[C@H](CCCCN)C(=O)N[C@H](CCCNC(=N)N)C(=O)NCC(=O)N[C@H](Cc1ccc(O)cc1)C(N)=O)C(C)C
notes: source: synthetic peptide, custom made by Cambridge Peptides (>95% purity)
Kd: 58 to 125 nM
koff: 0.00037 s⁻¹
kon: 3680 M⁻¹ s⁻¹
